According to the nanobody polyreactivity screen of Harvey et al. (2022):

Assay: yeast display, Sf9 membrane polyspecificity reagent, FACS + sequencing; frameworks hold sequencing errors
Outline: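 Using colony PCR, genes from sorted yeast display clones were amplified, then sequenced on MiSeq at 2 × 250 and filtered by CDR length. The clones had been stained with 10% biotinylated, detergent-solubilized Sf9 membrane reagent for 1 hour at 4 °C and sorted by FACS into low and high (top ~1%) gates on anti-HA and streptavidin fluorescence. Polyreactivity labels come from the gate of origin.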

Sequence	polyreactivity (PSR sort gate)
QVQLVESGGGLVQAGGSLRLSCAASGRIFSPYAMGWYRQAPGKERELVAAITRNGGRTYYADSVKGRFTISRDNAKNTVYLQMNSLKPEDTAVYYCAAAKQSGNDYWGQGTQVTVSS	low polyreactivity
QVQLVESGGGLVQAGGSLRLSCAASGRIFSRNAMGWYRQAPGKERELVAAITYSGGSTYYADSVKGRFTISRDNAKNTVYLQMNSLKPEDTAVYYCNADLYLQLPESYEYDYWGQGTQVTVSS	high polyreactivity
QVQLVESGGGLVQAGGSLRLSCAASGRIFSRNAMGWYRQAPGKERELVAGISARGGRTYYADSVKGRFTISRDNAKNTVYLQMNSLKPEDTAVYYCNARTGYQDGTYGNDYWGQGTQVTVSS	high polyreactivity
QVQLVESGGGLVQAGGSLRLSCAASGRIFSRNTMGWYRQAPGKEREFVAAISQSGGRTYYADSVKGRFTISRDNAKNTVYLQMNSLKPEDTAVYYCAAPSQSRGYYYWGQGTQVTVSS	high polyreactivity
QVQLVESGGGLVQAGGSLRLSCAASGRIFSRYAMGWYRQAHGKERELVAAISWSGGSTYYADSVKGRFTISRDNAKNTVYLQMNSLKPEDTAVYYCAARRSYSYGSWGQGTQVTVSS	high polyreactivity
QVQLVESGGGLVQAGGSLRLSCAASGRIFSRYAMGWYRQAPGKERELVAAINKSGGSTYYADSVKGRFTISRDNAKNTVYLQMNSLKPEDTAVYYCNAVYYWYKGDYWGQGSQVTVSS	high polyreactivity
QVQLVESGGGLVQAGGSLRLSCAASGRIFSRYAMGWYRQAPGKERELVAAISRNGGSTYYADSVKGRFTISRDNAKNTVYLQMNSLKPEDTAVYYCNARGNQAVNGYEYWGQGTQVTVSS	high polyreactivity
QVQLVESGGGLVQAGGSLRLSCAASGRIFSRYAMGWYRQAPGKERELVAAISWSGGSTYYADSVKGRFTISRDKAKNTVYLQMNSLKPEDTAVYYCAAKRQYTEYNYWGQGTQVTVSS	high polyreactivity
QVQLVESGGGLVQAGGSLRLSCAASGRIFSRYAMGWYRQAPGKERELVAIISSGDSTNYADSVKGRFTISRDNAKNTVYLQMNSLKPEDTAVYYCAAANWGTPPYDDWGQGTQVTVSS	low polyreactivity
QVQLVESGGGLVQAGGSLRLSCAASGRIFSSNVMGWYRQAPGKERELVAAITVTGGSTYYAYSVKGRFTISRDNAKYTVYLLMNSLNPEDTAVYFCAARVKGRFPYDYWGQGSQVTVSS	low polyreactivity
QVQLVESGGGLVQAGGSLRLSCAASGRIFSSYAMGWYRQAPGKEREFVASITWRGGSTYYADSVKGRFTISRDNAKNTVYLQMNSLKPEDTAVYYCAADFYWKTYGYRTHEYDYWGQGTQVTVSS	high polyreactivity
QVQLVESGGGLVQAGGSLRLSCAASGRIFSSYAMGWYRQAPGKERELVADITGRYGSTYYADSVKGRFTISRDNAKNTVYLQMNSLKPEDTAVYYCAASRFYFPRTFGGYPKLASYAYWGQVTQVTVSS	low polyreactivity
QVQLVESGGGLVQAGGSLRLSCAASGRIFSSYAMGWYRQEPGKERELVAAISRSGARTYYADSVKGRFTISRDNAKNTVYLQMNSLKPEDTAVYYCAAVTVAGYDYWGQGTQVTVSS	high polyreactivity
QVQLVESGGGLVQAGGSLRLSCAASGRIFSTYALGWYRQAPGKERELVAAISYSGASTYYADSVKGRFTISRDNAKNTVYLQIKSMKPEDTAVYYCAKATYPHEYDYWGQGTQVTVSS	low polyreactivity
QVQLVESGGGLVQAGGSLRLSCAASGRIFSTYAMGWYRQAPGKERELVAAISWRGGNTYYADSVKGRFTISRDNAKNTVYLQMNSLKPEDTAVFYCAAASFAYPYRNSALDYWGQGTQVTVSS	high polyreactivity
QVQLVESGGGLVQAGGSLRLSCAASGRIFSTYAMGWYRQAPGKERELVAAISYSGTTTYYADSVKGRFTISRDNAKNTVYLQMNSLKPEDTAVYYCAAYRYSTWSYGRDYYWGQGTQVTVSS	high polyreactivity
QVQLVESGGGLVQAGGSLRLSCAASGRIFSTYTMGWYRQAPGKERELVASISWSGVRTRYADSVKGRFTISRDNAQNTVYLQMNSLKPEDTAVYYCAAVVPYYYRSPSNHMGYWGQGTQVTVSS	high polyreactivity
